Source: IntAct's records for PubMed 11238952

B1: Cyclic AMP-dependent transcription factor ATF-4 (Homo sapiens), P18848 (parent)
chain: MTEMSFLSSEVLVGDLMSPFDQSGLGAEESLGLLDDYLEVAKHFKPHGFSSDKAKAGSSEWLAVDGLVSPSNNSKEDAFSGTDWMLEKMDLKEFDLDALLGIDDLETMPDDLLTTLDDTCDLFAPLVQETNKQPPQTVNPIGHLPESLTKPDQVAPFTFLQPLPLSPGVLSSTPDHSFSLELGSEVDITEGDRKPDYTAYVAMIPQCIKEEDTPSDNDSGICMSPESYLGSPQHSPSTRGSPNRSLPSPGVLCGSARPKPYDPPGEKMVAAKVKGEKLDKKLKKMEQNKTAATRYRQKKRAEQEALTGECKELEKKNEALKERADSLAKEIQYLKDLIEEVRKARGKKRVP

Variants of: B1
Conditions: with BTRC

Variant | effect of a mutation on the interaction
D218N | decreasing interaction
S219N | decreasing interaction

Variants of: B1
Conditions: with BTRC
Remark: another data set of the same source

Variant | effect of a mutation on the interaction
S219N | disrupting interaction
